Source: article doi:10.1101/2022.05.10.491262

Molecular target: T1, human alpha-2-macroglobulin, native state (nA2M) (human), P01023
T1 chain: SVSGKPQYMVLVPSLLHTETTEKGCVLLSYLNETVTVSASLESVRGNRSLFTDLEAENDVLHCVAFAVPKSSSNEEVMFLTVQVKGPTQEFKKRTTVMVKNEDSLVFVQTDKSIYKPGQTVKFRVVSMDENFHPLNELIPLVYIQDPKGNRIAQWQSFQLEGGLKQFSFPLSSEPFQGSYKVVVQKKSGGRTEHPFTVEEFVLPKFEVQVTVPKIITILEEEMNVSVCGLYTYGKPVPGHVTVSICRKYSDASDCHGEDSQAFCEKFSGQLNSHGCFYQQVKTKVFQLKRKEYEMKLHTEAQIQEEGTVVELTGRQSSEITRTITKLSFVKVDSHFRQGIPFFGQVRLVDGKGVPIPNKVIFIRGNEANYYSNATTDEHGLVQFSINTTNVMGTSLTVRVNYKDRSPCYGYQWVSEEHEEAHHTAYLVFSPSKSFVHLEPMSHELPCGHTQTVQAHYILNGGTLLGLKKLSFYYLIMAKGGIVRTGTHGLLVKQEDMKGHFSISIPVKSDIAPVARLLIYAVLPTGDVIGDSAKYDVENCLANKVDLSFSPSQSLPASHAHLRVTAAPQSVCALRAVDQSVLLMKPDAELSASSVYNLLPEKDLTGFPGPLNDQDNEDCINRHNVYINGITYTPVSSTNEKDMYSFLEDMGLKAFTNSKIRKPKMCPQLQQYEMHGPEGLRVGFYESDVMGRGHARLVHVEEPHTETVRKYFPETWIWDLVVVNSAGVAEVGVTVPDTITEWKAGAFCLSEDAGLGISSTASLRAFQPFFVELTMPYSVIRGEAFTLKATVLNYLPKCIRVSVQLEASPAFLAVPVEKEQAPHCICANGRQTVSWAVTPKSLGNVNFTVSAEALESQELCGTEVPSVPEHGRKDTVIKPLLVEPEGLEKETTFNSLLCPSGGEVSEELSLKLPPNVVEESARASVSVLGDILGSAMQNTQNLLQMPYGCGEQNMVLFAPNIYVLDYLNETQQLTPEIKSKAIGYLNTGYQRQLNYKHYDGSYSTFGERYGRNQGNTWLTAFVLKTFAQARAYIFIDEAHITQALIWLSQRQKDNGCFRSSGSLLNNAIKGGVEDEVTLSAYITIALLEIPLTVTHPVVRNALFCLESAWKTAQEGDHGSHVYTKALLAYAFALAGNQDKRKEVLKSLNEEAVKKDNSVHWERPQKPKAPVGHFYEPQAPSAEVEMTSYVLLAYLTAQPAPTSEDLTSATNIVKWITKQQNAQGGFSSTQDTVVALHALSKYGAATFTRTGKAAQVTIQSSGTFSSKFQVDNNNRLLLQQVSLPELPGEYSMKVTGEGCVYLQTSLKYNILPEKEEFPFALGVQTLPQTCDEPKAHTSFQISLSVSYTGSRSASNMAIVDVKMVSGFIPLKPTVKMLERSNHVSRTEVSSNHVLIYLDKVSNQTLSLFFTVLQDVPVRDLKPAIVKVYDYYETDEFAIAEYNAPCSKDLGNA
Assay: ITC

B1: human trypsin, P35030 81-304 (enzyme)
chain: IVGGYTCEENSLPYQVSLNSGSHFCGGSLISEQWVVSAAHCYKTRIQVRLGEHNIKVLEGNEQFINAAKIIRHPKYNRDTLDNDIMLIKLSSPAVINARVSTISLPTTPPAAGTECLISGWGNTLSFGADYPDELKCLDAPVLTQAECKASYPGKITNSMFCVGFLEGGKDSCQRDSGGPVVCNGQLQGVVSWGHGCAWKNRPGVYTKVYNYVDWIKDTIAANS
modifications: not checked
stoichiometry N (trypsin per hA2M): 1.2
